In the RNAGym collection of RNA variant scans (doi:10.1101/gr.219683.116):

B1: mRNA-splicing (parent)
chain: AGUUGCUGCUGGGAGCUCCAGCACAGUGAAAUGGACAGAAGGGCAGAGCAA

Variants of: B1
Assay: exon inclusion enrichment index; higher = more inclusion; WT1 exon 5 minigene, HEK293

Variant | exon inclusion enrichment index
U7A C9A U10A | 0.589
U7A C9A U10C | 1.94
C6A U7C C9G | 1.05
C6A U7C C9U | 1.42
C6G U7C G8A U10C | 2.05
C6G U7C G8A U10A | 0.0835
G13A A14C | 0.227
G13A A14U | 0.0995
G13A A14G | 0.249
G11C | 2.05
G11A | 0.618
G11U | 2.22
U7C U10C | 2.76
U10A G11C | 2.77
U10A G11A | 2.02
U10A G11U | 2.73
G12C | 1.58
G12U | 0.925
G12A | 1.7
C6A U7G C9A U10C | 0.53
C6A U7G C9A U10A | 0.108
C6U U7C C9A U10A | 0.879
C6U U7C C9A U10C | 3.37
C6U U7A G8U C9A | 0.17

Variant | exon inclusion enrichment index
C9G U10G | 0.0139
C9G U10A | 0.0101
C9G U10C | 0.22
G12U G13C | 0.721
G12U G13U | 0.199
G12U G13A | 0.608
G11A G12U | 0.888
G11A G12C | 1.9
G11A G12A | 0.676
U7G G8U | 1.91
U7G G8A | 2.02
U7G G8C | 2.05
U7C C9A U10A | 1.64
U7C C9A U10C | 3.46
C9U U10G | 0.493
C9U U10A | 0.0452
C9U U10C | 2.55
C6A U7C G8A C9U U10C | 2.34
G11U G12C | 1.86
G11U G12U | 0.755
G11U G12A | 0.315
C9A U10G | 0.829
C9A U10C | 2.65
C9A U10A | 0.914

Variant | exon inclusion enrichment index
U7G C9A U10C | 2
U7G C9A U10A | 1
C6U U7A | 0.0485
C6U U7C | 0.178
C6U U7G | 0.0137
U10C | 2.72
U10A | 0.633
U10G | 1.82
C6G U7C U10C | 3.22
C6G U7C C9A U10C | 3.21
C6G U7C C9A U10A | 0.988
C6A U7G G8C C9A U10A | 0.124
C6A U7G G8C C9A U10C | 0.907
C6G U7A | 0.00764
C6G U7G | 0.0143
C6G U7C | 0.331
C6U G8C C9U U10C | 1.11
U7C G8C | 1.02
U7C G8U | 1.05
U7C G8A | 1.44
C6A U7C G8A U10C | 2.3
C6A U7C G8A U10A | 0.127
C6G G8C C9U U10C | 0.97
G11C G12C | 1.58

Variant | exon inclusion enrichment index
G11C G12A | 0.472
G11C G12U | 0.467
C6A U7C G8C C9G U10C | 2.26
C6G U7G C9A | 0.0321
C6U U7A C9A U10C | 0.322
C6U U7A C9A U10A | 0.0567
U10G G11A | 2.34
U10G G11C | 2.98
U10G G11U | 2.4
C6A U7C G8U U10C | 2.98
C6G G8U C9U | 0.101
C6A U7C G8U C9A U10C | 2.22
C6A U7C G8U C9A U10A | 0.176
C6U U7G C9A U10C | 1.45
C6U U7G C9A U10A | 0.189
C6U | 0.0511
C6G | 0.0263
C6A U7C U10C | 3.14
C6A U7C U10A | 0.41
C6A U7C U10G | 1.66
U7A G8C | 1.67
U7A G8A | 1.49
U7A G8U | 1.83
C6A U7C G8U C9U U10C | 2.41

Variant | exon inclusion enrichment index
C6A U7C C9A U10G G11U | 2.09
C6A U7C C9A U10G G11C | 2.72
C6G U7A G8U C9A | 0.349
G8C C9U U10C | 0.579
C6U U7C U10C | 3.52
C6A U7G G8A C9A U10C | 0.734
C6A U7G G8A C9A U10A | 0.0362
C9U | 1.36
C9G | 0.154
C9A | 1.96
C6A U7C G8C C9A U10C | 2.29
C6A U7C G8C C9A U10A | 0.587
C6A U7C C9U U10A | 0.0495
C6A U7C C9U U10G | 0.298
C6A U7C C9U U10C | 2.52
C6U U7G C9A | 0.522
G8U C9G | 0.455
G8U C9U | 0.3
G8U C9A | 0.386
C6A U7C G8A C9G U10C | 1.39
G12C G13A | 1.1
G12C G13C | 0.309
G12C G13U | 0.237
G13C A14C | 0.19

Variant | exon inclusion enrichment index
C6A U7C C9G U10G | 0.132
C6A U7C C9G U10C | 2.55
C6A U7C C9G U10A | 1.39
C6G U7A C9A U10A | 0.321
C6G U7A C9A U10C | 0.641
C6A U7C G8U C9G U10C | 1.91
C6U G8U C9U | 0.0925
C6U C9A U10C | 1.46
C6U C9A U10A | 0.198
U10C G11A | 1.76
U10C G11C | 1.66
U10C G11U | 2.21
U7G | 0.183
U7C | 0.538
U7A | 0.394
C6A U7C G8A C9A U10A | 0.265
C6A U7C G8A C9A U10C | 2.62
C6G C9A U10C | 1.01
C6G C9A U10A | 0.229
C6A U7G G8U C9A U10C | 0.407
C6A U7G G8U C9A U10A | 0.0118
C6A U7C G8C U10C | 2.08
G13A | 0.135
G13C | 0.0504

Variant | exon inclusion enrichment index
G8A C9G | 0.0723
G8A C9U | 0.355
G8A C9A | 0.383
U7A G8U C9A | 0.565
C6A U7G | 0.00565
G8C | 1.33
G8A | 1.09
G8U | 1.2
G12A G13U | 0.459
G12A G13C | 1.2
G12A G13A | 1.29
U7C G8A U10A | 0.437
U7C G8A U10C | 2.58
C6G U7G C9A U10C | 0.246
C6G U7G C9A U10A | 0.0539
G8C C9A | 0.365
G8C C9G | 0.884
G8C C9U | 0.216
C6A U7G C9A | 0.123
C6A U7C G8C C9U U10C | 2.28
U7G C9A | 1.94
C6U U7C G8A U10A | 0.155
C6U U7C G8A U10C | 2.38
